The results in this text go back to patent US7217570B2, “Organotypic intestinal culture and methods of use thereof” (The Wistar Institute of Anatomy and Biology, priority 2001, dated 2007).

For this experiment, the system named is enteric epithelial cells. The experiment can be described thus: Growth factor modulation of organotypic culture in reduced or modified media (Example 2). The class given is cell-based, human. As to conditions: growth factor added individually to base medium (MCDB 201/L15, transferrin, antibiotics). On the procedure:
To determine the role of growth factors on proliferation of colonic epithelial cells, this growth medium was modified by changing combinations of growth factors and deleting serum. Keratinocyte growth factor (KGF, R&D Systems) at 20 ng/ml was also tested as part of 23 growth factor combinations. Total relative cell numbers of a specific type were counted as an average of all nuclei counts from a minimum of 3 randomly selected cross-sections of a reconstruct. Goblet cells were counted based on their typical morphology and positive Alcian staining in at least 3 randomly selected slides. Proliferation rates in % were established by counting the number of BrdU or Ki-67-positive nuclei per total epithelial cell nuclei of section. Apoptotic cells were counted in H&E-stained sections (Vagunda, V. et al. 2000 Anal. Quant. Cytol. Histol., 22:307–310). Apoptotic bodies and nuclei were determined according to the size and numbers of the fragments. Apoptosis was calculated as percentage of total nuclei per section (Kerr, J F. et al. 1972 Br. J. Cancer, 26:239–257) To define the role of critical growth factors supporting growth and differentiation of the enteric epithelial cells, an organotypic culture, such as that described in Example 1, was grown in medium in which the number of supplements was reduced. […]

B1: Keratinocyte growth factor (protein, UniProt P21781 32-194, looked up)
Fibroblast growth factor 7: CNDMTPEQMATNVNCSSPERHTRSYDYMEGGDIRVRRLFCRTQWYLRIDKRGKVKGTQEMKNNYNIMEIRTVAVGIVAIKGVESEFYLAMNKEGKLYAKKECNEDCNFKELILENHYNTYASAKWTHNGGEMFVALNQKGIPVRGKKTKKEQKTAHFLPMAIT
notes: Keratinocyte growth factor (R&D Systems) at 20 ng/ml
Regarding B1, the epithelial cell proliferation entry is reported as “not supported”.

B2: epidermal growth factor (protein, UniProt P01133 23-1207, looked up)
Pro-epidermal growth factor: PQHWSCPEGTLAGNGNSTCVGPAPFLIFSHGNSIFRIDTEGTNYEQLVVDAGVSVIMDFHYNEKRIYWVDLERQLLQRVFLNGSRQERVCNIEKNVSGMAINWINEEVIWSNQQEGIITVTDMKGNNSHILLSALKYPANVAVDPVERFIFWSSEVAGSLYRADLDGVGVKALLETSEKITAVSLDVLDKRLFWIQYNREGSNSLICSCDYDGGSVHISKHPTQHNLFAMSLFGDRIFYSTWKMKTIWIANKHTGKDMVRINLHSSFVPLGELKVVHPLAQPKAEDDTWEPEQKLCKLRKGNCSSTVCGQDLQSHLCMCAEGYALSRDRKYCEDVNECAFWNHGCTLGCKNTPGSYYCTCPVGFVLLPDGKRCHQLVSCPRNVSECSHDCVLTSEGPLCFCPEGSVLERDGKTCSGCSSPDNGGCSQLCVPLSPVSWECDCFPGYDLQLDEKSCAASGPQPFLLFANSQDIRHMHFDGTDYGTLLSQQMGMVYALDHDPVENKIYFAHTALKWIERANMDGSQRERLIEEGVDVPEGLAVDWIGRRFYWTDRGKSLIGRSDLNGKRSKIITKENISQPRGIAVHPMAKRLFWTDTGINPRIESSSLQGLGRLVIASSDLIWPSGITIDFLTDKLYWCDAKQSVIEMANLDGSKRRRLTQNDVGHPFAVAVFEDYVWFSDWAMPSVMRVNKRTGKDRVRLQGSMLKPSSLVVVHPLAKPGADPCLYQNGGCEHICKKRLGTAWCSCREGFMKASDGKTCLALDGHQLLAGGEVDLKNQVTPLDILSKTRVSEDNITESQHMLVAEIMVSDQDDCAPVGCSMYARCISEGEDATCQCLKGFAGDGKLCSDIDECEMGVPVCPPASSKCINTEGGYVCRCSEGYQGDGIHCLDIDECQLGEHSCGENASCTNTEGGYTCMCAGRLSEPGLICPDSTPPPHLREDDHHYSVRNSDSECPLSHDGYCLHDGVCMYIEALDKYACNCVVGYIGERCQYRDLKWWELRHAGHGQQQKVIVVAVCVVVLVMLLLLSLWGAHYYRTQKLLSKNPKNPYEESSRDVRSRRPADTEDGMSSCPQPWFVVIKEHQDLKNGGQPVAGEDGQAADGSMQPTSWRQEPQLCGMGTEQGCWIPVSSDKGSCPQVMERSFHMPSYGTQTLEGGVEKPHSLLSANPLWQQRALDPPHQMELTQ
modifications: Pro-epidermal growth factor
notes: human recombinant epidermal growth factor (Sigma)
Regarding B2, the epithelial cell proliferation result is “not supported”.
